{"source": "paper PMC4862333", "about": "(The Journal of Cell Biology, 2016)", "proteins": {"B1": {"name": "His-Sumo-tagged Cab45 (recombinant) (natural protein, human, UniProt Q9BRK5 37-362, looked up)", "chain": "RPANHSSTRERVANREENEILPPDHLNGVKLEMDGHLNRGFHQEVFLGKDLGGFDEDAEPRRSRRKLMVIFSKVDVNTDRKISAKEMQRWIMEKTAEHFQEAMEESKTHFRAVDPDGDGHVSWDEYKVKFLASKGHSEKEVADAIRLNEELKVDEETQEVLENLKDRWYQADSPPADLLLTEEEFLSFLHPEHSRGMLRFMVKEIVRDLDQDGDKQLSVPEFISLPVGTVENQQGQDIDDNWVKDRKKEFEELIDSNHDGIVTAEELESYMDPMNEYNALNEAKQMIAVADENQNHHLEPEEVLKYSEFFTGSKLVDYARSVHEEF"}, "B2": {"name": "ATTO488-labeled recombinant Cab45 (natural protein, human, UniProt Q9BRK5 37-362, looked up)", "chain": "B1 chain", "modifications": "ATTO488 (NHS-ATTO488 label)"}}, "key": {"native gel or EMSA": {"target": "the molecule itself", "test": "native gel or EMSA"}, "[1]": {"target": "the molecule itself", "test": "in vitro oligomerization assay"}}}
{"protein": "B1", "values": [{"measurement": "binding result", "setting": "native gel or EMSA", "result": "binds"}]}
{"protein": "B2", "values": [{"measurement": "binding result", "setting": "[1]", "result": "binds"}]}
